# Experimental data reported in patent US11485769B2, “Peptides and combination of peptides for use in immunotherapy and methods for generating scaffolds for the use against pancreatic cancer and other cancers” (Immatics Biotechnologies GmbH, priority 2015, dated 2022).
# Target: HLA-A*02:01 (Homo sapiens, UniProt P04439, D140Y/D185E/D98H/E176V/E277Q/G131W/G231S/I119V/I121R/I166T/I218V/L300P/L318F/N151K/N90K/P208A/P217A/Q86G/Q94H/R138H/R169H/T345S)
# Assay: MHC binding assay (UV-ligand exchange, beta2m ELISA, peptide exchange yield)
# Conditions: binding to HLA-A*02:01 ranged by peptide exchange yield, β2m ELISA
# Excerpt: Candidate peptides for T cell based therapies according to the present invention were further tested for their MHC binding capacity (affinity). The individual peptide-MHC complexes were produced by UV-ligand exchange, where a UV-sensitive peptide is cleaved upon UV-irradiation, and exchanged with the peptide of interest as analyzed. Only peptide candidates that can effectively bind and stabilize the peptide-receptive MHC molecules prevent dissociation of the MHC complexes. To determine the yield of the exchange reaction, an ELISA was performed based on the detection of the light chain (β2m) of stabilized MHC complexes. The assay was performed as generally described in Rodenko et al. (Rodenko et al., 2006).
# 96 well MAXISorp plates (NUNC) were coated over night with 2 ug/ml streptavidin in PBS at room temperature, washed 4× and blocked for 1 h at 37° C. in 2% BSA containing blocking buffer. Refolded HLA-A*02:01/MLA-001 monomers served as standards, covering the range of 15-500 ng/ml. Peptide-MHC monomers of the UV-exchange reaction were diluted 100 fold in blocking buffer. Samples were incubated for 1 h at 37° C., washed four times, incubated with 2 ug/ml HRP conjugated anti-μ2m for 1h at 37° C., washed again and detected with TMB solution that is stopped with […]. Absorption was measured at 450 nm. Candidate peptides that show a high exchange yield (preferably higher than 50%, most preferred higher than 75%) are generally preferred for a generation and production of antibodies or fragments thereof, and/or T cell receptors or fragments thereof, as they show sufficient avidity to the MHC molecules and prevent dissociation of the MHC complexes.
# MHC class I binding scores. Binding of HLA-class I restricted peptides to HLA-A*02:01 was ranged by peptide exchange yield: ≥10%=+; ≥20%=++; ≥50=+++; >75%=++++
row,Peptide exchange (MHC class I binding score),Substance
1,“+++” (≥50=+++),139 (SIDRNPPQL; listed as Homo sapiens) [compound 139]
2,“+++” (≥50=+++),140 (SLLNPPETLNL; listed as Homo sapiens) [compound 140]
3,“+++” (≥50=+++),141 (SLTEQVHSL; listed as Homo sapiens) [compound 141]
4,“+++” (≥50=+++),142 (SLYGYLRGA; listed as Homo sapiens) [compound 142]
5,“++” (≥20%=++),144 (TAVALLRLL; listed as Homo sapiens) [compound 144]
6,“+++” (≥50=+++),145 (TTFPRPVTV; listed as Homo sapiens) [compound 145]
7,“+++” (≥50=+++),146 (VLISGVVHEI; listed as Homo sapiens) [compound 146]
8,“++” (≥20%=++),147 (YAFPKAVSV; listed as Homo sapiens) [compound 147]
9,“++” (≥20%=++),148 (YLHNQGIGV; listed as Homo sapiens) [compound 148]
10,“+++” (≥50=+++),149 (ILGTEDLIVEV; listed as Homo sapiens) [compound 149]
11,“++++” (>75%=++++),150 (ALFQPHLINV; listed as Homo sapiens) [compound 150]
12,“++++” (>75%=++++),151 (ALLDIIRSL; listed as Homo sapiens) [compound 151]
13,“++++” (>75%=++++),152 (ALLEPEFILKA; listed as Homo sapiens) [compound 152]
14,“+++” (≥50=+++),153 (ALPKEDPTAV; listed as Homo sapiens) [compound 153]
15,“+++” (≥50=+++),154 (KVADLVLML; listed as Homo sapiens) [compound 154]
16,“+++” (≥50=+++),155 (LLLDPDTAVLKL; listed as Homo sapiens) [compound 155]
17,“+++” (≥50=+++),156 (LLLPPPPCPA; listed as Homo sapiens) [compound 156]
18,“+++” (≥50=+++),157 (MLLEIPYMAA; listed as Homo sapiens) [compound 157]
19,“++++” (>75%=++++),158 (SLIEKYFSV; listed as Homo sapiens) [compound 158]
20,“+++” (≥50=+++),159 (SLLDLHTKV; listed as Homo sapiens) [compound 159]
21,“++++” (>75%=++++),160 (VLLPDERTISL; listed as Homo sapiens) [compound 160]
22,“+++” (≥50=+++),161 (YLPDIIKDQKA; listed as Homo sapiens) [compound 161]
